Molecular target: human CD40 receptor on monocytes (human) (UniProt P25942)
Assay: cell-based or functional assay

Chain of UniProt P25942 (P25942 21-277): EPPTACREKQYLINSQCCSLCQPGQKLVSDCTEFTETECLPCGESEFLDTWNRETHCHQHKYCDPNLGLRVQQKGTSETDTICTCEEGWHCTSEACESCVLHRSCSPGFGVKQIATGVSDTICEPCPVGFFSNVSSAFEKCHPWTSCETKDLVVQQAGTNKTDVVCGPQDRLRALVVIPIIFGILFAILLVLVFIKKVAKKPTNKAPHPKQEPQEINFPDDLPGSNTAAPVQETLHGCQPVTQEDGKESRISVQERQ

In the case of “clone 64 (agonist anti-human CD40 monoclonal antibody, PanGenetics, The Netherlands)”, the IL-1β (pg/mL), Clone 64+IFN-γ, MDS CD14+ cells (Table 3) is reported as 18 pg/mL, the IL-1β (pg/mL), Clone 64+IFN-γ, donor CD14+ cells (Table 3) is reported as 13 pg/mL and the IL-6 (pg/mL), Clone 64+IFN-γ, MDS CD14+ cells (Table 3) is reported as 1210 pg/mL. For the same substance, the IL-6 (pg/mL), Clone 64+IFN-γ, donor CD14+ cells (Table 3) was 1490 pg/mL, the IL-10 (pg/mL), Clone 64+IFN-γ, MDS CD14+ cells (Table 3) was 1650 pg/mL and the IL-10 (pg/mL), Clone 64+IFN-γ, donor CD14+ cells (Table 3) was 1170 pg/mL. It also gave a TNF-α (pg/mL), Clone 64+IFN-γ, MDS CD14+ cells (Table 3) of 293 pg/mL, a TNF-α (pg/mL), Clone 64+IFN-γ, donor CD14+ cells (Table 3) of 52 pg/mL and a TNF-α production by CD14+ monocytes from MDS patients, clone 64 + IFN-γ, 24 h, ELISA of 449 pg/mL. The TNF-α production by CD14+ monocytes from normal controls, clone 64 + IFN-γ, 24 h, ELISA was 67 pg/mL.

— WO2008140316A1
